Test results reported in patent publication US20070191278A1 (AVIDEX, published 2007).

Key:
[1] = target: HLA-A2-pol (biotinylated HLA-A2 plus HIV-1 polymerase 476-484, immobilised on streptavidin) (human; HIV-1)
[2] = target: HLA-A2-flu (biotinylated HLA-A2 plus Influenza matrix protein 58-66, immobilised on streptavidin) (human; Influenza); assay: SPR (BIAcore) equilibrium binding, immobilised HLA-A2-flu, 37 °C, mean ± range

B1: soluble CD8αα receptor (residues 1-120 of the mature human CD8α protein, expressed in E. coli and refolded as a homodimer) (receptor)
chain: not shown
notes: also called sCD8αα; CD8 A
koff [1]: 18 s⁻¹ | kon [1]: ≥ 140000 M⁻¹ s⁻¹ | Kd [2]: 629 µM
